Source: patent US20200116741A1 (University of California, published 2020)

Experiments:
[1] = target: T1, rhERFE2 (human, UniProt Q4G0M1 29-354); assay: hybridoma supernatant screening; checkerboard sandwich testing
T1 construct: also called Recombinant hERFE2; recombinant human erythroferrone 2
T1 sequence: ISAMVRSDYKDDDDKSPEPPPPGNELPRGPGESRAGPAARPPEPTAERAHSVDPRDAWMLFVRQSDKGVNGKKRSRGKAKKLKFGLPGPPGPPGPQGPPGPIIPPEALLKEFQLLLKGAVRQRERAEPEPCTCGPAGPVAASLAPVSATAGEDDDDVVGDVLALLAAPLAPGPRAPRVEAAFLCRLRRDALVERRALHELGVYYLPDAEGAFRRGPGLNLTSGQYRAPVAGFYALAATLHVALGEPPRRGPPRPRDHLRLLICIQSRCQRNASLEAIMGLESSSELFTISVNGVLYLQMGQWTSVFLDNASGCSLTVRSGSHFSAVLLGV
Description: Rabbit hybridomas were generated (custom order fulfilled by Abcam, Burlingame, Calif.) from rabbits immunized by rhERFE1 and boosted by rhERFE2. Hybridoma supernatants were selected for reactivity against rhERFE2. After biotinylation of Mabs (EZ-Link sulfo-NHS-LC-LC-Biotin kit, Thermo Fisher Scientific), optimal pair of unbiotinylated capture Mab and biotinylated detection Mab was chosen by checkerboard testing with rhERFE1 and rhERFE2. The cDNAs encoding the final Mab pair (#9 and #42) were cloned from the hybridomas and used to produce the Mabs recombinantly.

[2] = target: T2, rhERFE1 (human, UniProt Q4G0M1 29-354); assay: checkerboard sandwich ELISA, capture antibody
T2 construct: The FLAG tag was mostly lost during cell culture; also called recombinant hERFE; recombinant human erythroferrone 1
T2 sequence: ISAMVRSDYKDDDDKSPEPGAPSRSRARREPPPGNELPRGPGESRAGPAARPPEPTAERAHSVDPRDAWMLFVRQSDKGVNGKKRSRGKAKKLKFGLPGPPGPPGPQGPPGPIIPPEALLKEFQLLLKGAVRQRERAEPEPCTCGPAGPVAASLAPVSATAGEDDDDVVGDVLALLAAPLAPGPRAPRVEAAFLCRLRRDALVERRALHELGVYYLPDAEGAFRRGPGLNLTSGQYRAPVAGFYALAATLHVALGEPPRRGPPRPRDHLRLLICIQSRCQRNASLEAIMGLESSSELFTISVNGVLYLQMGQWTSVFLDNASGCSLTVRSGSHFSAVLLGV

[3] = target: T3, peptide ELPRGPGESRAGPAARPP (human); assay: peptide epitope scanning
T3 peptide: ELPRGPGESRAGPAARPP

[4] = target: T4, human erythroferrone (human, UniProt Q4G0M1 29-354); assay: sandwich ELISA on human serum, Mab#9 as capture antibody
T4 construct: Native hormone in human serum, detected by the Mab#9 / Mab#42 sandwich ELISA; also called hERFE; serum hERFE
T4 sequence (looked up): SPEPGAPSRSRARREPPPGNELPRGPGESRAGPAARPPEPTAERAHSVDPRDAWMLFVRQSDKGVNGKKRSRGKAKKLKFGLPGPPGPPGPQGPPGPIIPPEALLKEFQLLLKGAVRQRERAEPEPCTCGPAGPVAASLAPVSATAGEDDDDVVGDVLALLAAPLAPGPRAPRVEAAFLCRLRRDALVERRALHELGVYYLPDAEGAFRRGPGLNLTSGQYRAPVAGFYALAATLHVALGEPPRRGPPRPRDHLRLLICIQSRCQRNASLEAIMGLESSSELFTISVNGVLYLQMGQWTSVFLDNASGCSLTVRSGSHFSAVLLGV
Method: (§1) 96-well high binding plates (Costar #3590) were coated with Mab#9 diluted to 1 μg/ml in sodium carbonate buffer (50 mM, pH 9.6), overnight at 4° C. Plates were washed 3-times with TB S-T (TBS +0.05% Tween 20) then blocked for 1 hour at room temperature with 200 µl/well Blocking Buffer (BB: PBS,0.2% Na casein, 0.05% Tween 20, 0.1M NaCl). Recombinant hERFE2 standard was first diluted to 1 μg/ml and then serially diluted in BB to 10, 5, 2.5, 1.25, and 0.625 ng/ml. After a 1 hour incubation at 25° C. in a 300 rpm shaker, the plate was washed 4-times with TBS-T, 10 seconds, 25° C., and 300 rpm per wash and incubated 1 hour at 25° C., 300 rpm in shaker with 100 μl/well biotinylated Mab#42 (1 μg/ml in BB). After incubation for 1 hour at 25° C., 300 rpm in shaker, the plate was washed 4-times as before, incubated for 45 minutes with Neutravidin-HRP conjugate (ThermoScientific #31030) 1/5000 (100 μl/well) washed again 3-times as before and developed with 100 μl TMB Substrate System for ELISA (ThermoScientific #34028) at room temperature in the dark for 10 minutes. The reaction was stopped by adding 50 μl of 2N sulfuric acid and the plates were read on a Spectramax 250 (Molecular Devices) at 450 nm.

[5] = target: T2, rhERFE1; assay: checkerboard sandwich ELISA, biotinylated detection antibody
[6] = target: T4, human erythroferrone; assay: sandwich ELISA on human serum, biotinylated Mab#42 as detection antibody
Method: as §1

Measured: binding result

B1: Mab#9 (antibody, V domains shown)
VH: QSVEESGGRLVTPGTPLTLTCTVSGIDLNDNAMRWVRQAPGKGLEWIGVIYIDTSTYYASWAKGRFTISKTSSTTVDLKITSPTTEDTATYFCVREDGYRLGDVWGPGTLVTVSS
VL: ALVMTQTPSSVSAGVGGTVTINCQASQSLYNNNYLSWFQQKPGQPPKLLIYWASTLASGVPSRFSGSGSGTQFTLTISGVACDDAATYYCAGYKSSSNDDFAFGGGTEVVVKG
notes: Rabbit monoclonal from a hybridoma, later made recombinantly; Used unbiotinylated as the capture antibody in the ELISA; also called rabbit monoclonal antibody #9; capture Mab
binds: [1] | [2] | [3] | [4]

B2: Mab#42 (antibody, V domains shown)
VH: QSLEESGGRLVTPGGSLTLTCTVSGIDLSSYEMGWVRQAPGKGLEWIGVIGTDGTAVYATWVKGRFTISKTSTTVDLKMTSLTTEDTATYFCARDSSGNSNYRAFDPWGPGTLVTVSS
VL: AYDMTQTPASVEVAVGGTVTIKCQASQSIYSYLSWYQQKPGQPPKLLIYRASTLASGVPSRFKGSGSGTQFTLTISDLECADAATYYCQQGFVISNVLNSFGGGTEVVVKG
notes: Rabbit monoclonal from a hybridoma, later made recombinantly; also called rabbit monoclonal antibody #42; biotinylated detection Mab
binds: [5] | [1] | [6]
